T1: GST-FE65 PTB1 (bacterially expressed) (UniProt O00213 361-514)
T1 sequence (looked up): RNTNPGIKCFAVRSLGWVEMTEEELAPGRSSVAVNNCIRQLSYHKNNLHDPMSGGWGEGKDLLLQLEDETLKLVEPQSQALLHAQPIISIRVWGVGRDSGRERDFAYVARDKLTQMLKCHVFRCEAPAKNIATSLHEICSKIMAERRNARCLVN

T2: GST-FE65 PTB1 (mammalian, pCIneo-GST-FE65 PTB1) (human, UniProt O00213 361-514)
T2 sequence (looked up): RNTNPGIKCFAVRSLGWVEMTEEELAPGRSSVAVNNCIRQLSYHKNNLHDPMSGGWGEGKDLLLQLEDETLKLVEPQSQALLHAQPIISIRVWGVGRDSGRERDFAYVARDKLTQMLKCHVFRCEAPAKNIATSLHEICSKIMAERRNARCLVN


Tests used:
[1] = molecular target: T1, GST-FE65 PTB1 (bacterially expressed); experiment: pull-down
[2] = molecular target: T2, GST-FE65 PTB1 (mammalian, …); experiment: pull-down

| Binder | percent of input pulled down [1] | percent of input pulled down [2] |
| --- | --- | --- |
| Myc/His-tagged wild-type ARF6 (natural protein, UniProt P62330 1-175, looked up) MGKVLSKIFGNKEMRILMLGLDAAGKTTILYKLKLGQSVTTIPTVGFNVETVTYKNVKFNVWDVGGQDKIRPLWRHYYTGTQGLIFVVDCADRDRIDEARQELHRIINDREMRDAIILIFANKQDLPDAMKPHEIQEKLGLTRIRDRNWYVQPSCATSGDGLYEGLTWLTSNYKS | 12% |  |
| Myc/His-tagged ARF6 Q67L (natural protein, UniProt P62330 1-175, looked up) MGKVLSKIFGNKEMRILMLGLDAAGKTTILYKLKLGQSVTTIPTVGFNVETVTYKNVKFNVWDVGGLDKIRPLWRHYYTGTQGLIFVVDCADRDRIDEARQELHRIINDREMRDAIILIFANKQDLPDAMKPHEIQEKLGLTRIRDRNWYVQPSCATSGDGLYEGLTWLTSNYKS | 0.7% | 2% |
| Myc/His-tagged ARF6 T27N (natural protein, UniProt P62330 1-175, looked up) MGKVLSKIFGNKEMRILMLGLDAAGKNTILYKLKLGQSVTTIPTVGFNVETVTYKNVKFNVWDVGGQDKIRPLWRHYYTGTQGLIFVVDCADRDRIDEARQELHRIINDREMRDAIILIFANKQDLPDAMKPHEIQEKLGLTRIRDRNWYVQPSCATSGDGLYEGLTWLTSNYKS | 27% | 23% |

From paper PMC4516155 (FASEB journal : official publication of the Federation of …, 2013)
